T1: cynomolgus CD3 on T cells (cynomolgus monkey)
T1 chain: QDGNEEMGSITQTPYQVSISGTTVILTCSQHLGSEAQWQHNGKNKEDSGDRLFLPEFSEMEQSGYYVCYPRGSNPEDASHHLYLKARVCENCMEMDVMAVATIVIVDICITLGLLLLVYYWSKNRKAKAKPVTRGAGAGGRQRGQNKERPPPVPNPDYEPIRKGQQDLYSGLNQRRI

B1: H1H5758B (antibody, V domains shown)
VH: EVQLVESGGGVVQPGRSLRLSCAASGFTFSSYGMHWVRQAPGKGLEWVTVILHDGSNRYYADSVKGRFTISRDNSKNTLYLQMNILRAEDTAVYYCTKGAMVRGVPYNHYYGMDVWGQGTTVTVSS
VL: DIVMTQSPSSLSASVGDRVTITCRASQGIRNDLGWYQQKPGKAPKRLIYAASNLQSGVPSRFSGSGSGTEFTLTISSLQPEDFATYYCLQHNSYPYTFGQGTKLEIKR
B2: H1H5786B (antibody, V domains shown)
VH: QVQLVESGAEVKKPGASVKVSCKTSGYTFTGYYMHWIRQAPGQGLEWMGWINPKSGGTNYAQKFQGRVTMTRDTSISTAYMELSRLRSDDMAVYYCARMGDGAVFDFWGQGTLVTVSS
VL: AIQMTQSPSSLSASVGDRVTITCRASQRISSFLNWYQQKPGKAPKLLIYTASNLQNGVPSRFSGSGSGTDFTLTISSLQPEDFATYYCQQSYRTPLTFGGGTKVEIKR
B3: BSPSMA/CD3-001 CD3 arm (antibody, V domains shown)
VH: EVQLVESGGGLVQPGRSLRLSCVASGFTFADFTMHWVRQAPGKGLEWVSGISWNSNSIDYADSVKGRFTISRDNAKKSLFLQMSSLRAEDTALYYCVKDRSGYSRFYYGMDVWGQGTTVTVSS
VL: EIVMTQSPATLSVSPGERAILSCRASQNINSNLAWYQQKPGQAPRLLIYGASTRATGVPARFSGSGSGTEFTLTIRSLQSEDFAVYYCQQYYNWPITFGHGTRLEIK
B4: BSPSMA/CD3-1900 CD3 arm (antibody, V domains shown)
VH: EVQLVESGGGLVQPGRSLRLSCAASGFTFDDYSMHWVRQAPGKGLEWVSGISWNSGSIGYADSVKGRFTISRDNAKNSLYLQMNSLRAEDTALYYCAKDGSGYGKFYHYGMDVWGQGTTVTVSS
VL: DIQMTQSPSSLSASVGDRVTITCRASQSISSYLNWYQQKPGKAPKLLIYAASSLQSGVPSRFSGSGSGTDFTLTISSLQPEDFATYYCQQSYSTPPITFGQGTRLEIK
B5: BSPSMA/CD3-2100 CD3 arm (antibody, V domains shown)
VH: B4 VH with I58K, H108Y
VL: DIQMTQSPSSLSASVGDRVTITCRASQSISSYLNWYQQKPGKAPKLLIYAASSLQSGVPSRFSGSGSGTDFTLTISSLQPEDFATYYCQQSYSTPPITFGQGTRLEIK
B6: BSPSMA/CD3-1500 CD3 arm (antibody, V domains shown)
VH: B4 VH with I58K, H108Y, M111L
VL: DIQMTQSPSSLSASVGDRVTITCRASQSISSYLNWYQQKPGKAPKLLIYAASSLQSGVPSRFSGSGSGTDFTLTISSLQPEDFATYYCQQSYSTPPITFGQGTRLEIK
B7: BSPSMA/CD3-1000 CD3 arm (antibody, V domains shown)
VH: B4 VH with I58K, D99Y, H108Y, M111L
VL: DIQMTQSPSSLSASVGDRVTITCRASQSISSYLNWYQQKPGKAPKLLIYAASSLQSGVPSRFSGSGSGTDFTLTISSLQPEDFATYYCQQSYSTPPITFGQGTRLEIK
B8: BSPSMA/CD3-1200 CD3 arm (antibody, V domains shown)
VH: B4 VH with M111L
VL: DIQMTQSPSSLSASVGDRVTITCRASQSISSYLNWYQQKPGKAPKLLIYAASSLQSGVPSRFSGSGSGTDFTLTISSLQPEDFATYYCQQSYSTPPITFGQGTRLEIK
B9: BSPSMA/CD3-1600 CD3 arm (antibody, V domains shown)
VH: B4 VH with I58K
VL: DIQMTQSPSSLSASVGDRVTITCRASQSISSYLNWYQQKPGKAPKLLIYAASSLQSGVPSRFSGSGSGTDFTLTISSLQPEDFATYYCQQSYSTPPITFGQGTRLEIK
B10: BSPSMA/CD3-900 CD3 arm (antibody, V domains shown)
VH: B4 VH with I58K, M111L
VL: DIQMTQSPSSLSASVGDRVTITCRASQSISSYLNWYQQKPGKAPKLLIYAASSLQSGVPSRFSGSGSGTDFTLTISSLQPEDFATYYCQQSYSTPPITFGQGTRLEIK
B11: BSPSMA/CD3-003 CD3 arm (antibody, V domains shown)
VH: B4 VH with I58K, D99Y, M111L
VL: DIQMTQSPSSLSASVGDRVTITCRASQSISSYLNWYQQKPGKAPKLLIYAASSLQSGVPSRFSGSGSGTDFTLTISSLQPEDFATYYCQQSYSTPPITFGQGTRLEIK
B12: BSPSMA/CD3-800 CD3 arm (antibody, V domains shown)
VH: B4 VH with D99Y, M111L
VL: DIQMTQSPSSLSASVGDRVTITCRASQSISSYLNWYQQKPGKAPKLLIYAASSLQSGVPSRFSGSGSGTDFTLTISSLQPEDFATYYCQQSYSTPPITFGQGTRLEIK
B13: BSPSMA/CD3-1400 PSMA arm (antibody, V domains shown)
VH: QVQLVESGGGVVQPGRSLRLSCAASGFTFSSYGMHWVRQAPGKGLEWVAVISYAGNNKYYADSVKGRFTVSRDNSKKTLYLQMNSLRSEDTAVYYCAKDSYYDFLTDPDVLDIWGQGTMVTVSS
VL: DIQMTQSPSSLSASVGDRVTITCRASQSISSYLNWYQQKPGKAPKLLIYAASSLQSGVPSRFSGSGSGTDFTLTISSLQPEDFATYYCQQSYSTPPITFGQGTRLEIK
B14: BSPSMA/CD3-1200 PSMA arm (antibody, V domains shown)
VH: B13 VH
VL: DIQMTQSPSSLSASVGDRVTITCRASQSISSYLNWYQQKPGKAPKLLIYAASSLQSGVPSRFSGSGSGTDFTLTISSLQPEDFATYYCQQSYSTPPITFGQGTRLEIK
B15: BSPSMA/CD3-2100 PSMA arm (antibody, V domains shown)
VH: B13 VH
VL: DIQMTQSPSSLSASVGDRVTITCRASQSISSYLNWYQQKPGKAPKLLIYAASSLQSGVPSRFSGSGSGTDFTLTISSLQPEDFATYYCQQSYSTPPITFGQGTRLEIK
B16: BSPSMA/CD3-005 PSMA arm (antibody, V domains shown)
VH: B13 VH
VL: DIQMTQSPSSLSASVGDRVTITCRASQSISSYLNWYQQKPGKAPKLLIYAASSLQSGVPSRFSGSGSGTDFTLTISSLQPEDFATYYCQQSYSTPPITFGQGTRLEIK
B17: BSPSMA/CD3-900 PSMA arm (antibody, V domains shown)
VH: B13 VH
VL: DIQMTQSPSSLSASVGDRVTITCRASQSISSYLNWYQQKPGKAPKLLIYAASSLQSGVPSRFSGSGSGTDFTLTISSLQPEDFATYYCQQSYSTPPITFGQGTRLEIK
B18: BSPSMA/CD3-1600 PSMA arm (antibody, V domains shown)
VH: B13 VH
VL: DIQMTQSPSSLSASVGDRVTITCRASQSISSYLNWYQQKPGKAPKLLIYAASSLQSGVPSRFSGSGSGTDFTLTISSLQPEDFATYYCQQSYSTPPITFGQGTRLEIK
B19: BSPSMA/CD3-1700 PSMA arm (antibody, V domains shown)
VH: B13 VH
VL: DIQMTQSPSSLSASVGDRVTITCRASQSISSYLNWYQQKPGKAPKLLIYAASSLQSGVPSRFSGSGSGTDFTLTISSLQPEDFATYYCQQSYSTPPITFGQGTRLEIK
B20: BSPSMA/CD3-200 PSMA arm (antibody, V domains shown)
VH: B13 VH
VL: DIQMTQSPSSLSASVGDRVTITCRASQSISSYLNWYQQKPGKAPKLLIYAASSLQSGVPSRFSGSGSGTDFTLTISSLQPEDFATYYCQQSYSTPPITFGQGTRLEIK
B21: BSPSMA/CD3-300 PSMA arm (antibody, V domains shown)
VH: B13 VH
VL: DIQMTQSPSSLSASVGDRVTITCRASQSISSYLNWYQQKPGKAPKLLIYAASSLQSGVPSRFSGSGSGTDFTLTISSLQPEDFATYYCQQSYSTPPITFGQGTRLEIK
B22: BSPSMA/CD3-1900 PSMA arm (antibody, V domains shown)
VH: B13 VH
VL: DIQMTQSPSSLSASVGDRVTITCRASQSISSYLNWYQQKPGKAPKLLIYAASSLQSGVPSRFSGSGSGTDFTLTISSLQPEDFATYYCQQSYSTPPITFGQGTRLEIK
B23: BSPSMA/CD3-1100 PSMA arm (antibody, V domains shown)
VH: B13 VH
VL: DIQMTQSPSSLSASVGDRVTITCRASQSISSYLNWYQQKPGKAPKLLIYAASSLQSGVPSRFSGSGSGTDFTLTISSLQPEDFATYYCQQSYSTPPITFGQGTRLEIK
B24: BSPSMA/CD3-003 PSMA arm (antibody, V domains shown)
VH: B13 VH
VL: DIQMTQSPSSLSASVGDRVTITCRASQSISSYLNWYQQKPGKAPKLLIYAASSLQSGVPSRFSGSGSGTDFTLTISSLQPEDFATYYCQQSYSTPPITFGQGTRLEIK
B25: BSPSMA/CD3-1000 PSMA arm (antibody, V domains shown)
VH: B13 VH
VL: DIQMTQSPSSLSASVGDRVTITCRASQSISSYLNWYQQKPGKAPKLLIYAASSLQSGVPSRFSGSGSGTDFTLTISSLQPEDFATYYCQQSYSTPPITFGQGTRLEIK
B26: BSPSMA/CD3-800 PSMA arm (antibody, V domains shown)
VH: B13 VH
VL: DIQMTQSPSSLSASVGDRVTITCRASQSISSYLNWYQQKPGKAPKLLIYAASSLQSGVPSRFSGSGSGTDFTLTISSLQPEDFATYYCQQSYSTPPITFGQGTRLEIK
B27: BSPSMA/CD3-1300 PSMA arm (antibody, V domains shown)
VH: B13 VH
VL: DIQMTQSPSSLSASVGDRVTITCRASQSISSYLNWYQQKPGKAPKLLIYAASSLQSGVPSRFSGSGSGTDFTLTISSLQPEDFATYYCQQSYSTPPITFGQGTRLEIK
B28: BSPSMA/CD3-1500 PSMA arm (antibody, V domains shown)
VH: B13 VH
VL: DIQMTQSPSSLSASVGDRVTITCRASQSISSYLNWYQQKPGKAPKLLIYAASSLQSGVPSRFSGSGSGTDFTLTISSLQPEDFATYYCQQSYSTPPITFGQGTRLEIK
B29: BSPSMA/CD3-004 PSMA arm (antibody, V domains shown)
VH: B13 VH
VL: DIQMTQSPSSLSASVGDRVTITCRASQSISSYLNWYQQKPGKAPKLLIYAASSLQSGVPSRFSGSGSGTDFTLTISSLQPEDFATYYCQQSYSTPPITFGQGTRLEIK
B30: BSPSMA/CD3-400 PSMA arm (antibody, V domains shown)
VH: B13 VH
VL: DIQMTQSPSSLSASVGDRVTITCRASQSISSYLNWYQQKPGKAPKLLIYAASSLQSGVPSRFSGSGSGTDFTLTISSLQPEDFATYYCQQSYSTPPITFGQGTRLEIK
B31: BSPSMA/CD3-1800 PSMA arm (antibody, V domains shown)
VH: B13 VH
VL: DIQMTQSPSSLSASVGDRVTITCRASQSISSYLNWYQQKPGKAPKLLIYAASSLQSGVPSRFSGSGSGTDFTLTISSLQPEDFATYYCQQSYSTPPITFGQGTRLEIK

Where a chain is given by its changes, count along the chain named.

human CD3 epsilon/delta heterodimer, Fc-tagged (human), sequence (chain, as listed by the source mutant, chain 1 of 2): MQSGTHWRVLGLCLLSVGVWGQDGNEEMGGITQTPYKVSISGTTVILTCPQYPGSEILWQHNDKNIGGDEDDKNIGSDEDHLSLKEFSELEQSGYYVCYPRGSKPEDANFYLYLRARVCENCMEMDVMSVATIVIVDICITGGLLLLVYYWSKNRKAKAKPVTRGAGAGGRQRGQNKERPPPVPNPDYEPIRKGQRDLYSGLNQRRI
human CD3 epsilon/delta heterodimer, Fc-tagged (human), sequence (chain, as listed by the source mutant, chain 2 of 2): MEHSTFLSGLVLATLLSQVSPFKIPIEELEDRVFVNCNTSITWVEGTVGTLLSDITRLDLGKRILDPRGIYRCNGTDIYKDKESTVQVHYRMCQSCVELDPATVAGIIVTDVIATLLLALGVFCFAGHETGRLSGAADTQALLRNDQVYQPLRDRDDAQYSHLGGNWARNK

For one experiment, the target named is human CD3 on Jurkat cells (human). Description: FACS. A general note: A flow cytometer gives signals particle by particle.
human CD3 on Jurkat cells (human), sequence (chain, as listed by the source, chain 1 of 2): as the sequence (chain, as listed by the source mutant, chain 1 of 2) above
human CD3 on Jurkat cells (human), sequence (chain, as listed by the source, chain 2 of 2): as the sequence (chain, as listed by the source mutant, chain 2 of 2) above
The EC50 is the concentration that produces a half-maximal response. Low values mean a more potent agent, high ones a less potent agent. For the molecule B1, the EC50 was determined as 1.9 nM. Still for that read-out and setting: to B2 belongs 1.1 nM.

The next experiment has the same target. The experiment in a line: FACS. This is another data set of the same source.
For B3, the 50% effective concentration (EC50) came to 39.1 nM. Same read-out and setting: for B4 the value was 60.7 nM. Take B5: a half-maximal response (EC50) required 106 nM.

Consider B6, for which the EC50 stood at 93 nM. B7 returned an EC50 of 277 nM. This EC50 lies about 3-fold higher than the previous one. For the molecule B8, a half-maximal effect (EC50) was put at 47.2 nM. Regarding B9, the concentration for a half-maximal effect (EC50) is 56.8 nM. In turn, B10 returned an EC50 of 274 nM.

For a further experiment, the target named is T1, cynomolgus CD3 on T cells. Description: FACS.
As to B4, the binding result is on record as “no binding”. As to B5, the binding result is reported as “no binding”. On the same count and under the same terms, to B6 belongs “no binding”; to B7, “no binding”.

As to B8, the binding result was “no binding”. For B9, the binding result is “no binding”.

For B10, the binding result is recorded as “no binding”.

The next experiment deals with T1, cynomolgus CD3 on T cells. The experiment in a line: FACS. The source holds these as a separate data set.
For B11, a half-maximal effect (EC50) was put at 14.2 nM. This counts as double-digit nanomolar. In turn, B12 showed an EC50 of 19.6 nM.

For the next experiment, the target named is human PSMA on cells (human). Description: FACS, B16F10.9/PSMA.
human PSMA on cells (human), sequence (A4UU12 whole entry): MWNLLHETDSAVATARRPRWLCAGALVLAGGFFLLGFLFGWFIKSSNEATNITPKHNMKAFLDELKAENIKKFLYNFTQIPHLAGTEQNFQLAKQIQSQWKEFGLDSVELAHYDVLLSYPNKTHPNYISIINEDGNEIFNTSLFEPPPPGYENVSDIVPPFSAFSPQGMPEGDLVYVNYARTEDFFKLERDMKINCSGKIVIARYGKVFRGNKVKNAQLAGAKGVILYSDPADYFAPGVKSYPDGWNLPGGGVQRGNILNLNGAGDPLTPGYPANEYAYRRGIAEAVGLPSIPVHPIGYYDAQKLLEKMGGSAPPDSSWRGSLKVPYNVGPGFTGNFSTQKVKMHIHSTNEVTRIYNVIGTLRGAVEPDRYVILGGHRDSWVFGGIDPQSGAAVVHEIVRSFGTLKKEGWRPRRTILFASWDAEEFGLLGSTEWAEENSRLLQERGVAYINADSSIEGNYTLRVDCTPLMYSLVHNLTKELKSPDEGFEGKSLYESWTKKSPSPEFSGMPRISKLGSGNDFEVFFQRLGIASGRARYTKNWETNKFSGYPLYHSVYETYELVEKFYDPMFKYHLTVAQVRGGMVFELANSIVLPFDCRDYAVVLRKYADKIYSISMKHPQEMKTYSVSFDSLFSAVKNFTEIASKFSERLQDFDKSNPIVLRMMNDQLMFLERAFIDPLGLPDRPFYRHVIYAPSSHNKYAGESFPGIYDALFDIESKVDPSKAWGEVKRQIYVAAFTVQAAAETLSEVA
B13 registered an EC50 of 1.3 nM. Still for that read-out and setting: for B14 the value was 1.16 nM. In turn, B15 gave an EC50 of 1.14 nM. On the same count and under the same terms, for B16 the value was 2.09 nM. The molecule B17 displayed a concentration for a half-maximal effect (EC50) of 1.43 nM. B18 came in with an EC50 of 1.03 nM. In turn, B19 gave an EC50 of 1.34 nM.

As for B20, the EC50 turned out to be 1.88 nM. Same read-out and setting: to B21 belongs 1.9 nM; to B22, 1.35 nM. Still for that read-out and setting: to B23 belongs 1.03 nM. B24 came in with a 50% effective concentration (EC50) of 2.26 nM. In turn, B25 gave a concentration for a half-maximal effect (EC50) of 1.19 nM. As to B26, the EC50 was 1.31 nM. The EC50 values of the last two molecules are within 1.5-fold of each other. The molecule B27 displayed an EC50 of 1.25 nM. The EC50 values of the last two molecules are within 1.5-fold of each other. Same read-out and setting: for B28 the value was 1.21 nM. Molecule B29 yielded an EC50 of 1.31 nM. For the molecule B30, the EC50 is 1.72 nM. The EC50 values of the last two molecules are within 1.5-fold of each other. Same read-out and setting: for B31 the value was 2.16 nM.

Another experiment concerns the target human CD3 epsilon/delta heterodimer, Fc-tagged (human). Description: SPR, 37C.
As a reminder, the Kd is the constant that tells how readily two partners part at equilibrium. Turning to B4, the Kd amounted to 115 nM. B5: binding was put at a Kd of 77.5 nM. Regarding B6, the Kd turned out to be 82.9 nM. B7: the Kd turned out to be 185 nM. Still for that read-out and setting: for B11 the value was 5.78 nM. Molecule B8 displayed a Kd of 64.2 nM. Against the preceding molecule, the Kd is about 11-fold higher.

In turn, B9 registered a Kd of 37.8 nM. B10 had a Kd of 113 nM.

Regarding B12, binding was characterised by a dissociation constant (Kd) of 19.4 nM.

Values taken from patent US20210403595 (published 2021).
